Here are results for one sequence from patent US11285197B2, “Mesothelin vaccines and model systems” (priority 2002, dated 2022).

The target in the experiment is T1, HLA-A2 (Homo sapiens, UniProt P04439, D140Y/D185E/D98H/E176V/E277Q/G131W/G231S/I119V/I121R/I166T/I218V/L300P/L318F/N151K/N90K/P208A/P217A/Q86G/Q94H/R138H/R169H/T345S).
T1 construct: pulsing TAP deficient T2 cells that expressed the corresponding HLA class I molecule (T2-A2, T2-A3, or T2-A24 cells); endogenous in cells; host or cells: human T2 cells (TAP-deficient B/T lymphoblast hybrid), called T2-A2
The experiment in a line: T2 peptide/MHC binding assay, T2-A2 cells, W6/32 staining, flow cytometry. The settings on record: T2-A2 cells pulsed with peptide, HLA class I antibody W6/32, flow cytometry. On the technique in general: In flow cytometry, cells or beads pass a laser one at a time.

As for EIDESLIFY (listed as Homo sapiens), the “detection of HLA-A2 on the cell surface of peptide-pulsed T2-A2 cells” value is “do not stain”.
